Results reported in paper PMC5612608 (Contrast Media & Molecular Imaging, 2017).

Tests used:
[1] = Labeling stability: EDTA challenge and PBS, analysed by ITLC; type: physicochemical; details: chemical (label) stability, ITLC eluted with citric acid 0.2 M pH 2.0, average ± SD
Description: Radiolabeling with ^57Co was performed using 3.8–10 nmol (aq. 1 nmol/μL) of NOTA-PEG2-RM26 buffered with 80 μL ammonium acetate (0.2 M, pH 5.5). The mixture was incubated with ^57Co cobalt chloride (10–50 MBq) for 30 min at 60°C. For ^55Co labeling, 1.3 nmol of NOTA-PEG2-RM26 buffered with 80 μL ammonium acetate (0.2 M, pH 5.5) was heated by microwave irradiation for 1 min at 850 W in a sealed vial using a conventional microwave oven (Samsung MW82N-B). […] Labeling yield, radiochemical purity, and in vitro stability were analyzed using instant thin-layer chromatography (ITLC) strips (Agilent Technologies) eluted with citric acid (0.2 M, pH 2.0). In this system, free ^57/55Co migrates with the eluent front (Rf = 1.0) and the radiolabeled construct stays on the application point (Rf = 0.0). The system was previously validated by sodium dodecyl sulfate polyacrylamide gel electrophoresis (SDS-PAGE) and radio-HPLC [7, 8].

[2] = tested on: PC-3 xenografts; experiment: In vivo binding specificity in PC-3 xenografted Balb/c nu/nu mice; design: species or system mouse; details: female Balb/c nu/nu mice with subcutaneous PC-3 tumors, 3 h pi, 45 pmol, coinjected 20 nmol
Description: (§1) The animal experiments were planned and performed in accordance with the national legislation on the protection of laboratory animals, and the study plans were approved by the local committee for animal research ethics. Groups of 3-4 mice were used per data point. Biodistribution studies were performed on female immunocompetent NMRI mice (weight: 30 ± 2 g), female Balb/c nu/nu (inoculated 10 million PC-3 cells/mouse 21 days before the experiment, weight 17 ± 2 g), and male inbred immunodeficient NOD-SCID mice (5 million PC-3 cells/mouse, 35 days before the experiment, 31 ± 2 g).
(§2) Tumor targeting specificity and biodistribution over time were studied on PC-3 xenografted female Balb/c nu/nu and male NOD-SCID mice, respectively. […] An additional group of animals was coinjected with an excess of nonlabeled peptide (20 nmol). The mice were sacrificed at 3 h pi by intraperitoneal injection of Ketalar-Rompun solution (10 mg/mL Ketalar and 1 mg/mL Rompun; 20 μL/g body weight). […] The mice were euthanized at 3 and 24 h pi by cervical dislocation. Tumors, blood, and other organs of interest were collected, weighed, and measured on radioactivity content in a gamma-counter. […] The organ uptake values were expressed as a percentage of injected dose per gram of tissue (% ID/g), except for the gastrointestinal tract and the remaining carcass, which were calculated as % ID per whole sample.

[3] = tested on: PC-3 cells; experiment: Cellular processing (binding and internalization, acid wash) by PC-3 cells; type: cell-based, human; details: 1 nM, 37°C, 24 h incubation, 3 dishes
Description: The cells were cultured in RPMI-1640 media supplemented with 10% fetal calf serum, PEST (penicillin 100 IU/mL, streptomycin 100 μg/mL), and 2 mM L-glutamine (all from Biochrom AG, Berlin, Germany). This medium is referred to as complete medium in the text. Trypsin-EDTA (0.05% trypsin, 0.02% EDTA in buffer; Biochrom AG) was used for cell detachment. All in vitro experiments were performed in triplicate. […] At predetermined time points (1, 2, 4, 8, and 24 h after the start of incubation) the medium from 3 dishes was discarded and the cells were washed with ice-cold serum-free medium. The membrane-bound and internalized radioactivity were collected using the acid wash method described earlier.

[4] = tested on: murine GRPRs; experiment: in vivo; design: species or system mouse; details: female NMRI mice, 30 min pi, 45 pmol, coinjected 20 nmol unlabeled peptide
Description: (§3) The animal experiments were planned and performed in accordance with the national legislation on the protection of laboratory animals, and the study plans were approved by the local committee for animal research ethics. Groups of 3-4 mice were used per data point. Biodistribution studies were performed on female immunocompetent NMRI mice (weight: 30 ± 2 g), female Balb/c nu/nu (inoculated 10 million PC-3 cells/mouse 21 days before the experiment, weight 17 ± 2 g), and male inbred immunodeficient NOD-SCID mice (5 million PC-3 cells/mouse, 35 days before the experiment, 31 ± 2 g). […] The injected radioactivity was adjusted to 30 kBq per animal. […] The mice were euthanized at 30 min pi by intraperitoneal injection of Ketalar-Rompun solution (10 mg/mL Ketalar and 1 mg/mL Rompun; 20 μL/g body weight). Blood samples were collected by cardiac puncture. Lung, liver, spleen, pancreas, stomach, small intestines, kidneys, muscle, bone, and the rest of intestines with their content were collected. The organs were weighed and their radioactivity content was measured in a gamma-counter. The data were corrected for background radiation. The organ uptake values were expressed as a percentage of injected dose per gram of tissue (% ID/g), except for the gastrointestinal tract and the remaining carcass, which were calculated as % ID per whole sample.

[5] = in vivo; design: species or system mouse; details: female, NMRI, mouse, in vivo, iv, 45 pmol, total radioactivity
Description: as §3

[6] = in vivo; details: male, NOD-SCID, mouse, iv, 16.8 pmol, total radioactivity
Description: as §1, §2

## CC(C)C[C@H](NC(=O)C[C@H](O)[C@H](CC(C)C)NC(=O)[C@H](Cc1c[nH]cn1)NC(=O)CNC(=O)[C@@H](NC(=O)[C@H](C)NC(=O)[C@H](Cc1c[nH]c2ccccc12)NC(=O)[C@H](CCC(N)=O)NC(=O)[C@@H](Cc1ccccc1)NC(=O)COCCOCCNC(=O)CN1CCN(CC(=O)O)CCN(CC(=O)O)CC1)C(C)C)C(N)=O [^57Co-NOTA-PEG2-RM26]
[1]; 1000-fold molar excess of EDTA disodium salt, 1 h, room temperature
  Release in the presence of excess EDTA: 0.7 ± 0.2%
[1]; PBS, 1 h incubation at room temperature
  Release in PBS: 0.07 ± 0.11%
[2]
  Tumor uptake and uptake in GRPR-expressing organs on coinjection of excess unlabeled peptide: inhibited
[3]
  Internalized fraction of cell-associated radioactivity: 12%
[4]
  Accumulated radioactivity in receptor-positive organs (pancreas, small intestine, stomach) on coinjection of unlabeled peptide: significantly lower
[5]; kidney retention
  tissue uptake at 0.5 h: 6 ± 2 %ID/g
[5]; liver uptake
  tissue uptake at 0.5 h: 0.65 ± 0.05 %ID/g
[6]
  tissue uptake at 3 h: 0.05 ± 0.02 %ID/g
